Results reported in US12527846B2, “Immunodominant proteins and fragments in multiple sclerosis” (UNIVERSITÄT ZÜRICH, priority 2018, dated 2026).

Key:
[1] = test system: CD45RA-depleted PBMCs of natalizumab-treated MS patients; test: RASGRP2 reactivity of peripheral blood-derived memory T cells (thymidine incorporation); format: cell-based, human; settings: n=8 natalizumab-treated MS patients; peptide pools 10 μM or whole protein 0.3 μg/ml, day 7
Procedure: In order to test reactivity to RASGRP2 in peripheral blood-derived memory T cells, cryopreserved PBMCs (1×10^8 cells) of natalizumab-treated MS patients (NAT; n=8) were thawed and afterwards depleted for CD45RA-expressing cells using magnetic cell sorting (Miltenyi). 2×10^8 CD45RA-depleted PBMCs were seeded per well (10-15 replicate wells per condition) in X-Vivo medium and were either treated with vehicle (DMSO), with CD2/CD3/CD28 beads or pulsed with RASGRP2 peptide pools (final concentration of pool 10 μM) or whole purified RASGRP2 protein (Origene; 0.3 μg/ml). The 15mer-overlapping peptides covering the whole RASGRP2 protein (SEQ ID NO:s 38-98) were organized in 9 peptide pools with 7 peptides per pool covering the sequence of RASGRP2 from N- (pool 1) to C-terminus (pool 9). Thymidine incorporation assay was used to measure proliferation responses to RASGRP2. At day 7 the cells were pulsed with 1 μCi of methyl-3H-thymidine per well (Hartmann Analytic) and harvested after 15 h on a membrane (Tomtec). Incorporation was measured by p-scintillation counting (Wallac 1450, PerkinElmer). The results are shown as dots (mean±SEM). Stimulatory index (SI) was calculated as ratio of peptide or protein stimulation vs. vehicle control. SI values>2 were considered as positive (FIG. 10).

[2] = test system: CSF-infiltrating CD4+ T cells; test: Recognition of GDP-L-fucose synthase peptides by PHA-expanded CSF-infiltrating CD4+ T cells from 31 CIS/MS patients; format: cell-based, human; settings: three-cluster k-means on patient scores
Procedure: In order to find out if specific recognition of GDP-L-fucose synthase occurs in CSF-infiltrating CD4+ T cells in patients with different forms of MS (the majority CIS and RRMS), a new protocol was developed to expand fresh CSF-infiltrating CD4+ T cells to high numbers in a single round to minimize variations in the original T cell repertoire. Resting PHA-expanded CSF-infiltrating CD4+ T cells, T cells that are also derived from the CNS compartment, from 31 CIS/MS patients were tested in quadruplicate with the 62 overlapping GDP-L-fucose synthase peptides presented by autologous irradiated PBMCs, as well as with the seven myelin peptides, CEF peptide pool and control beads. All stimulatory indices (Sls; except control beads) were pooled and SI values less than one were treated as having unit value. Cluster k-means analysis was performed to determine the optimal cut-off to differentiate responsive SI values from nonresponsive in this patient population. […] Subsequently, for each patient, all peptides having a median SI (of the quadruplicate wells) greater than 1.455 were identified as positive responses.
Next, patient scores were constructed by calculating the sum of each responsive peptide median SI, weighted by the number of total patients that responded to that peptide. […]
Proliferation was measured 72 h after stimulation by 3H-thymidine (Hartmann Analytic, Braunschweig, Germany) incorporation in a scintillation counter (Wallac 1450, PerkinElmer, Rodgau-Jurgesheim, Germany). The stimulatory index (SI) was calculated as follows: SI=Median (replicates cpm peptide)/Median (replicates cpm without peptide). Proliferation was also measured using a Click-iT™ EdU Flow Cytometry Assay Kit (APC, Molecular Probes, Invitrogen) following manufacturer's instructions. Cells were stained with the following antibodies anti-CD3 (PE-Cy-7, e-Bioscience, San Diego, CA) and anti-TRBV-21 (FITC, Beckman Coulter, Brea, CA) and analyzed by flow cytometry.

Row | Molecule | donors responding (SI values>2 positive) [1] | patients characterized as high responders [2] [%] | patients characterized as moderate responders [2] [%] | patients characterized as nonresponders [2] [%]
1 | RASGRP2: RASGRP2 peptide pools (15mer-overlapping peptides, SEQ ID NOs 38-98, 9 pools) or whole purified RASGRP2 protein (Origene) (protein, listed as Homo sapiens) AAAAARPAGGSARRWGRPGRCGLLAAGPKRVRSEPGGRLPERSLGPAHPAPAAMAGTLDLDKGCTVEELLRGCIEAFDDSGKVRDPQLVRMFLMMHPWYIPSSQLAAKLLHIYQQSRKDNSNSLQVKTCHLVRYWISAFPAEFDLNPELAEQIKELKALLDQEGNRRHSSLIDIDSVPTYKWKRQVTQRNPVGQKKRKMSLLFDHLEPMELAEHLTYLEYRSFCKILFQDYHSFVTHGCTVDNPVLERFISLFNSVSQWVQLMILSKPTAPQRALVITHFVHVAEKLLQLQNFNTLMAVVGGLSHSSISRLKETHSHVSPETIKLWEGLTELVTATGNYGNYRRRLAACVGFRFPILGVHLKDLVALQLALPDWLDPARTRLNGAKMKQLFSILEELAMVTSLRPPVQANPDLLSLLTVSLDQYQTEDELYQLSLQREPRSKSSPTSPTSCTPPPRPPVLEEWTSAAKPKLDQALVVEHIEKMVESVFRNFDVDGDGHISQEEFQIIRGNFPYLSAFGDLDQNQDGCISREEMVSYFLRSSSVLGGRMGFVHNFQESNSLRPVACRHCKALILGIYKQGLKCRACGVNCHKQCKDRLSVECRRRAQSVSLEGSAPSPSPMHSHHHRAFSFSLPRPGRRGSRPPEIREEEVQTVEDGVFDIHL | All 8 donors responded |  |  | 
2 | GDP L-fucose synthase (protein, listed as Homo sapiens, whole protein 1-321, GenBank AAH93061.1 or UniProtKB/Swiss-Prot Q13630) MGEPQGSMRILVTGGSGLVGKAIQKVVADGAGLPGEDWVFVSSKDADLTDTAQTRALFEKVQPTHVIHLAAMVGGLFRNIKYNLDFWRKNVHMNDNVLHSAFEVGARKVVSCLSTCIFPDKTTYPIDETMIHNGPPHNSNFGYSYAKRMIDVQNRAYFQQYGCTFTAVIPTNVFGPHDNFNIEDGHVLPGLIHKVHLAKSSGSALTVWGTGNPRRQFIYSLDLAQLFIWVLREYNEVEPIILSVGEEDEVSIKEAAEAVVEAMDFHGEVTFDTTKSDGQFKKTASNSKLRTYLPDFRFTPFKQAVKETCAWFTDNYEQARK |  | 19.35 | 19.35 | 61.3
